The target in assay [1] is HIV-1 subtype C 1086.C gp120 (reference standard lot) (HIV-1 group M subtype C, strain 1086.C). As to the kind of experiment: non-reduced SDS-PAGE; purified gp120 reference material; the dimer band disappeared completely upon reduced SDS-PAGE.
The target in assay [2] is HIV-1 subtype C TV1.C gp120 (reference standard lot) (HIV-1 group M subtype C, strain TV1.C). Described as above.

In assay [1], “HIV-1 subtype C 1086.C gp120 (reference standard lot) (natural protein)” gave a stoichiometry N of 2. On to “HIV-1 subtype C TV1.C gp120 (reference standard lot) (natural protein)”, for which the stoichiometry N in assay [2] was 2.

Source of the values: article PMC4931634.
